Test results: the nanobody polyreactivity screen of Harvey et al. (2022)

assay: yeast display, Sf9 membrane polyspecificity reagent, FACS + sequencing; frameworks hold sequencing errors
Procedure, shortened: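 Polyreactivity labels are assigned by the sorting gate from which each nanobody was recovered. The gates were low and high (top ~1%), set on anti-HA fluorescence for expression and streptavidin fluorescence for reagent binding. Before sorting, galactose-induced (36–48 hours) yeast display cells were stained for 1 hour at 4 °C with 10% biotinylated, detergent-solubilized Sf9 membrane reagent.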

Which “polyreactivity (PSR sort gate)” value does the source give for “QVQLVESGGGLVQAGGSLRLSCAASGFIFGGNVMGWYRQAPGKEREFVAAITDGDGSTYYADSVKGRFTISRDNAKNTVYLQMNSLKPEDTAVYYCAADVYYADVYPVEYWGQGTQVTVSS” here?
The value was “high polyreactivity”.

With “QVQLVESGGGLVQAGGSLRLSCAASGFIFGGYAMGWSRQAPGKERELVADISSSGGSTYYADSVKGRFTLSRDNAKNTVYLQMNSLKPEDTAVYDCAKVGWSRRYYYWGQGTQVTVSS” as the sequence, how does the “polyreactivity (PSR sort gate)” value read?
Its value is “high polyreactivity”.

For “QVQLVESGGGLVQAGGSLRLSCAASGFIFGGYAMGWYRPAPGKERELVAAISSSGGSTYYADSVKGRFTISRDNAKNTVYLQMNSLKPEDTAVYYCAARIQSVSSGRWFDYWGQGTQVTVSS”, which “polyreactivity (PSR sort gate)” value is on record?
The value was “high polyreactivity”.

For “QVQLVESGGGLVQAGGSLRLSCAASGFIFGGYAMGWYRQAPGKERALVAAITRSGGSTYYADSVKGRFTISRDNAKNTVYLQMNSLKPEDTAVYYCAAERQPYRTSSYNYWGQGTQVTVSS”, which “polyreactivity (PSR sort gate)” value is on record?
Its value is “high polyreactivity”.

With “QVQLVESGGGLVQAGGSLRLSCAASGFIFGINAMGWYRQAPGKDRELVATITSGGGTNYADSVKGRFTISRDNAKNTVYLQMNSLKPEETAVYYCAAEEDYISFYVSMDYWGQGTQVTVSS” as the sequence, how does the “polyreactivity (PSR sort gate)” value read?
Its value is “low polyreactivity”.

For “QVQLVESGGGLVQAGGSLRLSCAASGFIFGINAMGWYRQEPGKERELFAAISKRTGSTYYADSVKGRFTISRDNAKNTVYLQMNSLKPEDTAFYYCNVVRYNGLDKYEYWGQGTQVTVSS”, which “polyreactivity (PSR sort gate)” value is on record?
The value was “high polyreactivity”.

Which “polyreactivity (PSR sort gate)” value does the source give for “QVQLVESGGGLVQAGGSLRLSCAASGFIFGIYAMGWYRQAPGKERELVARISRSGVSTYYADSVKGRFTISRDNAKNTVYLQMNSLKPEDTAVYYCNAYRGGLSSEHYYWGQGTQVTVSS” here?
Its value is “high polyreactivity”.

For “QVQLVESGGGLVQAGGSLRLSCAASGFIFGKYAMGWYRQAPGKERELVAAITSDGRTYYADSVKGRFTISRDNAKNTVYLEMNSLKPEDTAVYYCAVDYYWYWYSGYDDYWGQGTQVTVSS”, which “polyreactivity (PSR sort gate)” value is on record?
Its value is “high polyreactivity”.

With “QVQLVESGGGLVQAGGSLRLSCAASGFIFGLNAMGWYRPAPGKERELVAAISYNGGSTYYADSVKGRFTISRDNAKNTVYLQMNSLKPEDTAVDYCNAYLYRKVGYRAYDYWGHGTQVTVSS” as the sequence, how does the “polyreactivity (PSR sort gate)” value read?
Its value is “low polyreactivity”.

With “QVQLVESGGGLVQAGGSLRLSCAASGFIFGLYAMGWYRQAPGKERELVAAISSGGSTYYADSVKGRFTISRDNAKNTVYLQMNSLKPEDTAVYYCAAYYVYSEYDYWGQGTQVTVSS” as the sequence, how does the “polyreactivity (PSR sort gate)” value read?
The value was “high polyreactivity”.

Which “polyreactivity (PSR sort gate)” value does the source give for “QVQLVESGGGLVQAGGSLRLSCAASGFIFGLYDMGWYRQAPGKERELVARISWGGGTYYADSVKGRFTISRDNAKNTVYLQMNSLKPEDTAVYYCNTRTRGYYYNSYYWTKYGYWGQGTQVTVSS” here?
The value was “high polyreactivity”.

Which “polyreactivity (PSR sort gate)” value does the source give for “QVQLVESGGGLVQAGGSLRLSCAASGFIFGNYPMGWYRQAPGKQRELVAAITSGGNTNYADSVKGRFTISRDNAKNTVYLQMNSLKPEDTAVYYCAADRNLYWVFSPNETEDYWGQGTQVTVSS” here?
Its value is “low polyreactivity”.

Which “polyreactivity (PSR sort gate)” value does the source give for “QVQLVESGGGLVQAGGSLRLSCAASGFIFGPYAMGWYRPAPGKERELVASISNSGDSTYADSVKGRFTISRDTAKNTVYLQMNSLKPEDTAVYYCNADGFVGTPSVDYDYWGQGTQVTVSS” here?
Its value is “low polyreactivity”.

Which “polyreactivity (PSR sort gate)” value does the source give for “QVQLVESGGGLVQAGGSLRLSCAASGFIFGPYTMGWYRQAPGKERELVAAINNSGSTNYADSVKGRFTISRDNAKNTVYLQMNCLKPEDTAVYFCAAEPIIFVRYDYWGQGTQVTVSS” here?
The value was “low polyreactivity”.

Which “polyreactivity (PSR sort gate)” value does the source give for “QVQLVESGGGLVQAGGSLRLSCAASGFIFGQYALGGYRQAPGKERELVAVITSSGGRTYYADSVKGRFTISRDNAKNTVYLQMNSLKPEDTAVYYCAAPGYGLQVRGRYGYWGQGTQVTVSS” here?
Its value is “high polyreactivity”.

Which “polyreactivity (PSR sort gate)” value does the source give for “QVQLVESGGGLVQAGGSLRLSCAASGFIFGQYAMGWYRQAPGKERELVAAISWSGGRTNYADSVKGRYTISRDNAKNTVYLQMNSLKPEDTAVYYCAARKGKYPQYTYGYWGQGTQVTVSS” here?
Its value is “high polyreactivity”.

Which “polyreactivity (PSR sort gate)” value does the source give for “QVQLVESGGGLVQAGGSLRLSCAASGFIFGRYAMGWDREAPGKERELVAGIRSSGGSTYYADSVKGRFTISRDNAKNTVYLQMNSLKPEDTAVYYCAARTYGQSLDYWGQGTQVTVSS” here?
Its value is “high polyreactivity”.

With “QVQLVESGGGLVQAGGSLRLSCAASGFIFGRYAMGWYRPAPGKERELVAAITASGGRTYYADSVKGRFTISRDNAKNTVYIQMNSLKPEDTAVYYCNTPSLWSGEDYWGQGTQVTVSS” as the sequence, how does the “polyreactivity (PSR sort gate)” value read?
The value was “low polyreactivity”.

For “QVQLVESGGGLVQAGGSLRLSCAASGFIFGRYAMGWYRQAPGKERELVAAITWSGGRTYYADSVKGRFTISRDNAKNTVFLQMNSLKPEDTAVYYCNAQGYTTYRGDYWGQGTQVTVSS”, which “polyreactivity (PSR sort gate)” value is on record?
Its value is “high polyreactivity”.

Which “polyreactivity (PSR sort gate)” value does the source give for “QVQLVESGGGLVQAGGSLRLSCAASGFIFGRYAMGWYRQAPGKERELVAAITYSSGSTYYADSVKGRFTISRDNAKNTVYLQMNSLKPEDTAVYYCNAEFWYETLYEYDYWGQGTQVTVSS” here?
The value was “high polyreactivity”.

Which “polyreactivity (PSR sort gate)” value does the source give for “QVQLVESGGGLVQAGGSLRLSCAASGFIFGRYAMGWYRQAPGKERELVAVITWSGGRTYYADSVKGRFTISRDNAKNTVYLQMNSLKPEDTAVYDCAADRYPYHYGYDYWGQGTQVTVSS” here?
The value was “high polyreactivity”.

For “QVQLVESGGGLVQAGGSLRLSCAASGFIFGRYAMGWYRQAPGKETELVAAISVSGGSTYYADSVKGRFTISRDNAKNTVYLQMNSLKPEDTAVYYCNVARWVSVSRSYGGNYWGQGTQVTVSS”, which “polyreactivity (PSR sort gate)” value is on record?
Its value is “high polyreactivity”.

Which “polyreactivity (PSR sort gate)” value does the source give for “QVQLVESGGGLVQAGGSLRLSCAASGFIFGSNAMGWYRQAPGKERELVAAISRSGGSTYYADSVKGRFTISRDNAKNTVYLQMNSLKPEDTAVYYCASYLYKSRYLPEYDYWGQGTQVTVSS” here?
The value was “high polyreactivity”.

Which “polyreactivity (PSR sort gate)” value does the source give for “QVQLVESGGGLVQAGGSLRLSCAASGFIFGSYTMGWYRQAPGKERELVAAISSSVGRTYYADSVKGRFTISRDNAKNTVYLQMNSLKPEDTAVYYCAARRHGRVDYSQGSRESYYWGQGTQVTVSS” here?
The value was “high polyreactivity”.

For “QVQLVESGGGLVQAGGSLRLSCAASGFIFGTNTMGWYRQEPGKERELVAAITSVGSTNYADSVKGRFTISRDNAKNTVYLLMNSLKPEDTAVYYCPATLYYQYGGDYWGQGTQVTVSS”, which “polyreactivity (PSR sort gate)” value is on record?
Its value is “low polyreactivity”.

For “QVQLVESGGGLVQAGGSLRLSCAASGFIFGVYAMGWYRQAPGKEREFVAAISWTGGSTSYADSVKGRFTISRDNAKNTVYLQMNSLKPEDTAVYYCARRRSYKRRFDYWGQGTQVTVSS”, which “polyreactivity (PSR sort gate)” value is on record?
The value was “low polyreactivity”.

With “QVQLVESGGGLVQAGGSLRLSCAASGFIFGYKARGWYRQAPGKERELVAAISSSGGSTYYADSVKGRFTISRDNAKNTVYLQMKSLKPEDTAVYYCAARPVALRKYYYWGQVTQVTVSS” as the sequence, how does the “polyreactivity (PSR sort gate)” value read?
The value was “low polyreactivity”.

With “QVQLVESGGGLVQAGGSLRLSCAASGFIFGYNAMGWYRQAPGKERELVAAISSSGGSTYYADSVKGRFTISRDNAKNTVYLQMNSLKPEDTAVYYCAAESLTGYAHYDYWGQGTQVTVSS” as the sequence, how does the “polyreactivity (PSR sort gate)” value read?
The value was “low polyreactivity”.

With “QVQLVESGGGLVQAGGSLRLSCAASGFIFGYNGMGGYRQAPGKERELVAGITYSDGSTYYADSVKGRFTISRDNAKNTVYLQMNSLKPEDTAVYYCAVDVIYYWAEDYDYWGQGTQVTVSS” as the sequence, how does the “polyreactivity (PSR sort gate)” value read?
Its value is “low polyreactivity”.

For “QVQLVESGGGLVQAGGSLRLSCAASGFIFGYNVKGWYRQAPGKERELVAAISSRGSSTYYADSVKGRFSISRDNAKNTVYIQMNSLKPEDTAVYYCAAYSSYNSWVSRRYGHDYWGQGTQVTVSS”, which “polyreactivity (PSR sort gate)” value is on record?
The value was “high polyreactivity”.

With “QVQLVESGGGLVQAGGSLRLSCAASGFIFGYYAMGLYRQAPVKERELVAAITSGTGTNYADSVKGRFTISRDNAKNTVYLQMNSLKPEDTAVYYCAAYYTWLSEFGYWGQGTQVTVSS” as the sequence, how does the “polyreactivity (PSR sort gate)” value read?
Its value is “low polyreactivity”.

Which “polyreactivity (PSR sort gate)” value does the source give for “QVQLVESGGGLVQAGGSLRLSCAASGFIFGYYAMGWYRQAPGKERELVAAISGDAGRTYYADSVKGRFTISRDNAKNTVYLQMNSLKAEDTAVYYCAAADTYKMDYWGQGTQVTVSS” here?
Its value is “low polyreactivity”.

With “QVQLVESGGGLVQAGGSLRLSCAASGFIFGYYAMGWYRQAPGKERELVAAISGDAGRTYYADSVKGRFTISRDNAKNTVYLQMNSLKPEDTAVYYCAAADTYKMDYWGQGTQVTVSS” as the sequence, how does the “polyreactivity (PSR sort gate)” value read?
The value was “low polyreactivity”.

With “QVQLVESGGGLVQAGGSLRLSCAASGFIFGYYAMGWYRQAPGKERELVAAISWSGVSTYYADSVKGRFTISSDNAKNTVDLQMNSLKPEDTAVYYCAVGYVLTGVFQARFDYWGQGTQVTVSS” as the sequence, how does the “polyreactivity (PSR sort gate)” value read?
Its value is “high polyreactivity”.

For “QVQLVESGGGLVQAGGSLRLSCAASGFIFGYYAMGWYRQAPRKERELVAAISQSTGSTYYADSVKGRFSNSRDNAKNTVYLQMNSLKPEDTAVYYCNAEGPEVTTWGYVYWDWGYGYWGQGTQVTVSS”, which “polyreactivity (PSR sort gate)” value is on record?
The value was “low polyreactivity”.

With “QVQLVESGGGLVQAGGSLRLSCAASGFIFGYYTMGWYRQAPGKERELVASISSRGGSTFYADSVKGRFTISRDNAKNTVYLQMNSLKPEDTAVYYCAVRRGVYYYPYYYWGQGTQVTVSS” as the sequence, how does the “polyreactivity (PSR sort gate)” value read?
Its value is “high polyreactivity”.

With “QVQLVESGGGLVQAGGSLRLSCAASGFIFGYYTMGWYRQAPGKEREVVAAISSSGGRTYYADSVKGRFTISRDNAKNTVYLQMNSLKPEDTAVYYCAKQNRGSEPAYDYWGQGTQVTVSS” as the sequence, how does the “polyreactivity (PSR sort gate)” value read?
The value was “low polyreactivity”.

For “QVQLVESGGGLVQAGGSLRLSCAASGFIFGYYVMGWSRQAPGKERELVAAISGSGGRTYYADSVKGRFTISRDNAKNTVYLQMNSLKPEDTAVYYCNAVAFYRDYNYWGQGTQVTVSS”, which “polyreactivity (PSR sort gate)” value is on record?
The value was “high polyreactivity”.

With “QVQLVESGGGLVQAGGSLRLSCAASGFIFHLYAMGWYRQAPGKERDLVAAIRISDGSTYYADSVKGRFTISRDNAKNSVYLQMNRLKPEDTAVYYCNVVYRYGGYNYWGQGTQVTVSS” as the sequence, how does the “polyreactivity (PSR sort gate)” value read?
Its value is “high polyreactivity”.

For “QVQLVESGGGLVQAGGSLRLSCAASGFIFHSYDMGWYRPAPRKERELVASISRGGGSTYYADSVKGRFTISRDNAMNTVYLQMNSLKPEDTAVYDCSARVYSLGYGGDYWGQGTQVTVSS”, which “polyreactivity (PSR sort gate)” value is on record?
Its value is “high polyreactivity”.

Which “polyreactivity (PSR sort gate)” value does the source give for “QVQLVESGGGLVQAGGSLRLSCAASGFIFHVYAMGWYRQAPGKEREFVAGISWRGGRTYYADSVKGRFTISRDNAKNTVYLLMNSLKPEDTAVYYCAALGLNAGGKFDYWGQGTQVTVSS” here?
Its value is “high polyreactivity”.

For “QVQLVESGGGLVQAGGSLRLSCAASGFIFHVYAMGWYRQAPGKERELVARITSSGGNTFYADSVKGRFTISRDNAKNTVYLQMNSLKPEDTAVYYCAKSSIYTDYDYWGQGSQVTVSS”, which “polyreactivity (PSR sort gate)” value is on record?
Its value is “low polyreactivity”.

For “QVQLVESGGGLVQAGGSLRLSCAASGFIFIEYTMGWYRQAPGKERQLVAAISSGGNTYYADSVKGRFTISRDNAKNTVYLQMNSLKPEDTAVYYCNADNYAFYTQRPLDGSATYDYWGQGTQVTVSS”, which “polyreactivity (PSR sort gate)” value is on record?
Its value is “low polyreactivity”.
